The target in this assay is T1, 新型冠状病毒核衣壳蛋白 (SARS-COV-2, UniProt P0DTC9 1-419).
T1 construct: also called SARS-COV-2 nucleocapsid protein; 新型冠状病毒核衣壳蛋白抗原
The assay is described as follows: ELISA screening of hybridomas for antigen-specific antibodies. A general note: ELISA stands for enzyme-linked immunosorbent assay.

B1: mAb#9 (antibody, V domains shown)
VH: EVQLVESGGGLVKPGGSLKLSCAASGITFSDYYMYWVRQTPEKRLEWVATISDGGSYTYYPDSVKGRFTISRDNAKNNLYLQMSSLKSEDTAMYYCVRDKSMGFGAWFAYWGQGTLVTVSA
VL: EIVLTQSPTTMAASPGEKITITCSASSSISSNYLHWYQQRPGFSPKLLIYRTSNLASGVPARFSGSGSGTSYSLTIGTMEAEDVATYYCQQGHSIPYTFGGGTKLEIK
notes: also called 新型冠状病毒核衣壳抗体(mAb#9); 第二新型冠状病毒核衣壳蛋白抗体
Regarding B1, the binding result is on record as “binds”.
